In PMC4108476 one finds Kd data, which are given here for one molecule.

The series has as its target T1, [2Fe-2S]-IscR wild type (Escherichia coli, UniProt P0AGK8 1-162).
T1 sequence: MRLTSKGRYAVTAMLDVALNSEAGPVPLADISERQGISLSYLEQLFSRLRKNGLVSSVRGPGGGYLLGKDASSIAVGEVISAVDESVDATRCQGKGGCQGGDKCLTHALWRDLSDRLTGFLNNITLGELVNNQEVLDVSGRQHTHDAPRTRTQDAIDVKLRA
As to the kind of experiment: fluorescence anisotropy. (In fluorescence polarisation assays a small probe gives low polarisation when free and higher when bound to something large.)

A word on the Kd: it is a measure of binding affinity in units of concentration. Read a high Kd as weaker binding.

B1: PiscR site B 30-mer (dsDNA)
DNA 1: AAATAGTTGACCAATTTACTCGGGAATGTC
DNA 2: GACATTCCCGAGTAAATTGGTCAACTATTT
The molecule B1 had a Kd of 112 ± 2 nM.
